First the molecules themselves.
T1: recombinant human CD123-Fc (human, UniProt P26951 19-305)
T1 construct: not shown: Fc part of CD123-Fc
T1 sequence: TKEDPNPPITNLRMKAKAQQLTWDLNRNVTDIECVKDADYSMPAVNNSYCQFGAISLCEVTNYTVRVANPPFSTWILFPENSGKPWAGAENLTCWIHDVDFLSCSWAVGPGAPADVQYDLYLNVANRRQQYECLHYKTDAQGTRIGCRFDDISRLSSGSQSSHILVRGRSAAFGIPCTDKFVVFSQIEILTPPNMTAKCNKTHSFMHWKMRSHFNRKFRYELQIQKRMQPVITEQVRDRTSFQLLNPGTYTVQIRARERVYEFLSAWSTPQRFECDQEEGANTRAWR

T2: AFP p26 (human, UniProt P02771 381-609)
T2 construct: The construct used is not described
T2 sequence: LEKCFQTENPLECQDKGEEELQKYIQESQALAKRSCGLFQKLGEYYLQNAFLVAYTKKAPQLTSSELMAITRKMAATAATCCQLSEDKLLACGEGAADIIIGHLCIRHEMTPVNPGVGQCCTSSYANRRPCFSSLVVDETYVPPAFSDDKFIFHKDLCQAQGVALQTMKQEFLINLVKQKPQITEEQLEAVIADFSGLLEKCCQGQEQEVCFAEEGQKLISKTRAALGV

B1: SEQ ID NO: 625 (designed binder)
chain: MGSWYEFEQRLEAIEWRLGALGGSEAELATFEEDIADFEEWLQEYKGKGNPEVEALQYEAYAIAEELHAYRHN
notes: D domain, on phage
B2: SEQ ID NO: 621 (designed binder)
chain: MGSWYEFLARLYAIDERLWALGGSEAELATFEHWIADFEEQLQSYKGKGNPEVEALTDEAVAIGEELSAYRHN
notes: D domain, on phage
B3: SEQ ID NO: 624 (designed binder)
chain: MGSWHEFWQRLEAIEGRLWALGGSEAELADFESLIADFEEQLQEYKGKGNPEVEALMAEAEAIDNELRAYRHN
notes: D domain, on phage
B4: SEQ ID NO: 620 (designed binder)
chain: MGSWNEFVIRLFAIDDRLYALGGSEAELAWFEDEIATFEYELQRYKGKGNPEVEALEYEAEAIVSELFAYRHN
notes: D domain, on phage
B5: SEQ ID NO: 623 (designed binder)
chain: MGSWFEFETRLEAIDLRLWALGGSEAELATFEDVIAFFEDWLQFYKGKGNPEVEALKMEAWAIGEELHAYRHN
notes: D domain, on phage
B6: SEQ ID NO: 622 (designed binder)
chain: MGSWLEFETRLHAIDERLWALGGSEAELAEFEEHIAWFEEDLQFYKGKGNPEVEALDFEADAIGWELWAYRHN
notes: D domain, on phage
B7: SEQ ID NO: 626 (designed binder)
chain: MGSWYEFENRLFAIEERLWALGGSEAELAWFEYEIANFEWGLQSYKGKGNPEVEALDNEAEAIDIELAAYRHN
notes: D domain, on phage
B8: SEQ ID NO 744 (designed binder)
chain: MGSWVEFSGRLIAIDNRLWALGGSEAELAAFEKEIAAFESELQAYKGKGNPEVEYLRMWAAEIRYILQAYRHN
B9: SEQ ID NO 746 (designed binder)
chain: B8 chain with V5H, S8M, G9E, N16G, M58F, W59V, E62F, Y65D, I66V
B10: SEQ ID NO 745 (designed binder)
chain: B8 chain with S8H, G9H, I12F, N16E, W59V
B11: SEQ ID NO 743 (designed binder)
chain: B8 chain with V5M, S8F, G9D, I12V, N16E, Y65F, I66L
B12: SEQ ID NO 742 (designed binder)
chain: B8 chain with V5H, S8I, G9T, I12E, N16Q, M58F, Y65F
B13: SEQ ID NO 741 (designed binder)
chain: MGSWHEFYDRLDAIYFRLWALGGSEAELAAFEKEIAAFESELQAYKGKGNPEVELLRLLAAEIRKELQAYRHN
B14: SEQ ID NO 777 (designed binder)
chain: MGSWTEFWHRLEAIDSRLWALGGSEAELAAFEKEIAAFESELQAYKGKGNPEVESLREHAAHIRVWLQAYRHN
B15: SEQ ID NO 780 (designed binder)
chain: B14 chain with T5Y, W8Q, H9Q, S16T, S55E, V65H
B16: SEQ ID NO 786 (designed binder)
chain: B14 chain with T5V, W8V, H9S, E12Y, S16F, S55A, H62Q, V65D
B17: SEQ ID NO 781 (designed binder)
chain: B14 chain with W8E, H9K, E12H, S16Y, S55D, H62A, V65H
B18: SEQ ID NO 783 (designed binder)
chain: B14 chain with T5L, W8S, H9Q, E12T, S55N, H62K, V65N
B19: SEQ ID NO 788 (designed binder)
chain: B14 chain with T5L, W8H, H9S, E12D, S16T, S55K, H62A, V65H, W66Y
B20: SEQ ID NO 793 (designed binder)
chain: B14 chain with T5Y, W8Y, H9Y, S16N, W19I, S55V, H62K, V65E
B21: SEQ ID NO 776 (designed binder)
chain: B14 chain with T5Y, W8R, H9A, E12L, S16E, S55H, V65N, W66F
B22: SEQ ID NO 766 (designed binder)
chain: B14 chain with T5F, W8Y, H9E, E12N, S55K, E58A, H62S, V65T
B23: SEQ ID NO 768 (designed binder)
chain: B14 chain with T5S, W8V, H9K, E12D, S16Q, E58V, H62A, V65A
B24: SEQ ID NO 778 (designed binder)
chain: B14 chain with W8Q, H9N, E12N, S16H, H62K
B25: SEQ ID NO 758 (designed binder)
chain: B14 chain with T5L, W8Y, E12N, E58D, V65E
B26: SEQ ID NO 784 (designed binder)
chain: B14 chain with W8V, H9N, E12Y, S55G, E58T, H62K, V65H
B27: SEQ ID NO 792 (designed binder)
chain: B14 chain with T5Y, W8Y, H9K, S16N, W19Y, S55Y, H62A, V65H
B28: SEQ ID NO 770 (designed binder)
chain: B14 chain with T5V, W8H, H9Y, E12Q, S16A, S55E, E58V, V65K
B29: SEQ ID NO 749 (designed binder)
chain: B14 chain with T5F, W8Y, H9D, E12N, S16A, S55N, E58V, H62A, V65E
B30: SEQ ID NO 772 (designed binder)
chain: MGSWNEFMDRLNAIDNRLWALGGSEAELAAFEKEIAAFESELQAYKGKGNPEVENLRKQAASIRLWLQAYRHN
B31: SEQ ID NO 769 (designed binder)
chain: B14 chain with T5E, W8Y, H9Y, S16A, W19F, S55E, E58V, V65D
B32: SEQ ID NO 782 (designed binder)
chain: B14 chain with W8H, H9Q, E12D, S16E, S55F, H62K, V65M
B33: SEQ ID NO 779 (designed binder)
chain: B14 chain with T5S, W8F, H9K, S16R, S55E
B34: SEQ ID NO 767 (designed binder)
chain: B14 chain with T5I, W8Y, H9W, S16Q, S55D, E58V, H62A, V65W
B35: SEQ ID NO 789 (designed binder)
chain: B30 chain with N5T, M8Y, D9Q, N12D, N16T, N55G, K58Q, S62Q, L65A
B36: SEQ ID NO 771 (designed binder)
chain: B8 chain with S8V, I12N, N16A, Y55E, M58H, W59H, Y65N, I66W
B37: SEQ ID NO 787 (designed binder)
chain: B14 chain with T5S, W8H, H9T, E12D, S16T, S55D, E58R, H62A, V65F
B38: SEQ ID NO 785 (designed binder)
chain: B14 chain with T5M, W8V, H9D, E12S, S16R, S55V, H62N, V65Q
B39: SEQ ID NO 773 (designed binder)
chain: B30 chain with M8F, D9Q, N16E, N55D, K58Q, Q59H, S62N, L65W
B40: SEQ ID NO 774 (designed binder)
chain: B14 chain with T5Y, W8V, H9V, E12F, S16E, V65S
B41: SEQ ID NO 775 (designed binder)
chain: B14 chain with T5Y, W8Y, H9L, E12D, S16H, S55M, V65K
B42: SEQ ID NO 795 (designed binder)
chain: B14 chain with T5Y, W8S, D15E, S16D, W19F, S55P, H62Y, V65H
B43: SEQ ID NO 794 (designed binder)
chain: B14 chain with T5Y, W8V, H9S, S16D, W19Y, S55M, E58Q, H62A, V65H
B44: SEQ ID NO 747 (designed binder)
chain: MGSWKEFIQRLDAIHYRLWALGGSEAELAAFEKEIAAFESELQAYKGKGNPEVEYLRFVAAFIRFELQAYRHN
B45: SEQ ID NO 748 (designed binder)
chain: B44 chain with K5S, Q9F, Y16S, W19Q, V59I, F62E, F65L, E66K

Where a chain is given by its changes, count along the chain named.

Drawing on patent publication US20230125550A1 (ARCELLX, published 2023), this text covers ELISA_avg for 45 molecules.

One test concerns the target T1, recombinant human CD123-Fc. Description: phage ELISA, captured CD123-Fc. The method in brief: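 Phage from BCMA panning colonies were rescued with VCSM13 helper phage and diluted 5× in blocking buffer. Plates coated with anti-human IgG1-Fc captured 5 nM target-Fc or IgG1-Fc, and binding was detected with HRP anti-M13. Ratio = A450 target/A450 IgG1-Fc, averaged over the clone's wells.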
For the molecule B1, the ELISA_avg came to 4.4 ratio A450 target/IgG1-Fc.

For B2, the ELISA_avg turned out to be 4.5 ratio A450 target/IgG1-Fc.

On to B3, for which the ELISA_avg is 7 ratio A450 target/IgG1-Fc.

B4: the ELISA_avg stood at 3.5 ratio A450 target/IgG1-Fc.

B5: the ELISA_avg amounted to 6.6 ratio A450 target/IgG1-Fc.

As to B6, the ELISA_avg amounted to 4.6 ratio A450 target/IgG1-Fc.

With B7, the ELISA_avg came out at 3.3 ratio A450 target/IgG1-Fc.

In the next test the target is T2, AFP p26. Description: phage ELISA, A450 target/A450 IgG1-Fc. The procedure, abridged:
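The ELISA ratio divides target absorbance by IgG1-Fc absorbance and averages this over all screened wells holding a given clone. Phage came from phagemid colonies picked from panning output and were rescued with VCSM13 helper phage in 96-well format. After coating with 1.3 microg/ml goat anti-human IgG1-Fc antibody, wells were loaded with 5 nM recombinant human target or IgG1-Fc, then with 50 microl phage diluted 5× in ELISA blocking buffer, and bound phage were read at 450 nm using HRP-conjugated anti-M13 antibody.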
In general terms: ELISA stands for enzyme-linked immunosorbent assay.
In the case of B8, the ELISA_avg was found to be 5.28 ratio.

B9: the ELISA_avg was found to be 17.9 ratio.

In the case of B10, the ELISA_avg stood at 21.4 ratio.

B11 registered an ELISA_avg of 18.6 ratio.

B12 came in with an ELISA_avg of 16.9 ratio.

Molecule B13 had an ELISA_avg of 9.6 ratio.

The molecule B14 returned an ELISA_avg of 13.2 ratio.

On to B15, for which the ELISA_avg was found to be 27.3 ratio.

For B16, the ELISA_avg was 29 ratio.

As to B17, the ELISA_avg turned out to be 17.1 ratio.

As for B18, the ELISA_avg was 30.4 ratio.

For B19, the ELISA_avg was 30.8 ratio.

For B20, the ELISA_avg worked out at 29.6 ratio.

B21 came in with an ELISA_avg of 20.9 ratio.

In turn, B22 came in with an ELISA_avg of 27.1 ratio.

B23 yielded an ELISA_avg of 27 ratio.

Molecule B24 displayed an ELISA_avg of 30.5 ratio.

B25 registered an ELISA_avg of 19.2 ratio.

B26 showed an ELISA_avg of 16.7 ratio.

With B27, the ELISA_avg was determined as 30.8 ratio.

Molecule B28 gave an ELISA_avg of 14.8 ratio.

On to B29, for which the ELISA_avg is 5.92 ratio.

Take B30: the ELISA_avg came to 10 ratio.

In turn, B31 returned an ELISA_avg of 30.3 ratio.

B32 showed an ELISA_avg of 24.4 ratio.

Molecule B33 returned an ELISA_avg of 30.2 ratio.

As for B34, the ELISA_avg is 9.4 ratio.

Regarding B35, the ELISA_avg was 29.7 ratio.

B36: the ELISA_avg was 26 ratio.

As for B37, the ELISA_avg is 23.5 ratio.

B38 showed an ELISA_avg of 32.1 ratio.

B39 registered an ELISA_avg of 28.7 ratio.

Take B40: the ELISA_avg was found to be 18.2 ratio.

Molecule B41 registered an ELISA_avg of 16 ratio.

In the case of B42, the ELISA_avg was determined as 26 ratio.

As for B43, the ELISA_avg came to 33.1 ratio.

As to B44, the ELISA_avg amounted to 18.4 ratio.

Regarding B45, the ELISA_avg is 28.3 ratio.
